Measurements taken from patent US6960343B2, “Toll/interleukin-1 receptor adapter protein (TIRAP)” (Yale University School of Medicine, priority 2001, dated 2005).

Tests used:
[1] = target: T1, CD4/TLR4 (constitutively active form of TLR4) (UniProt O00206+P06332); assay: CD4/TLR4-mediated NF-κB activation, luciferase reporter, 293T cells; format: cell-based; conditions: 50 ng, 250 ng, 1.0 μg construct
T1 construct: CD4 (fusion partner of the chimera); expressed in transfected cells; host or cells: 293T cells
T1 sequence (P06332+O00206 with tags, fused parts or gaps): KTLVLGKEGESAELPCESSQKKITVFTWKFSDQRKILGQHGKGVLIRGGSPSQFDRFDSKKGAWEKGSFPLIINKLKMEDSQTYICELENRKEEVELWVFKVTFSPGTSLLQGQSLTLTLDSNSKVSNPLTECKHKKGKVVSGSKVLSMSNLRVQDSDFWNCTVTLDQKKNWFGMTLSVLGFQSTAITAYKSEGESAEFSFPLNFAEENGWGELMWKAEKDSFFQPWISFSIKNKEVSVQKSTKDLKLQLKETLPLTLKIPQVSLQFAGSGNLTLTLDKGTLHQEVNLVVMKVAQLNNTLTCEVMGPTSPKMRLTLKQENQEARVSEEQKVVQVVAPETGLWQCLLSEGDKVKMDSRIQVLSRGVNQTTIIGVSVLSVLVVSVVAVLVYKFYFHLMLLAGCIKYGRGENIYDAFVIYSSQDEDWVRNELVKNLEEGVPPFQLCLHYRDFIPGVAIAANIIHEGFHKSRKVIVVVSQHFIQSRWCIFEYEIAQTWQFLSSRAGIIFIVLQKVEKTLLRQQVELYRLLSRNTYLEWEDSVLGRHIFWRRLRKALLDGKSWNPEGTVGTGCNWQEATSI
Description: To determine whether TIRAP P125H functions as a dominant negative, 293T cells were transfected with 0.25 μg of vector alone (pcDNA3) or CD4/TLR4 (a vector expressing a constitutively active form of TLR4) with or without increasing concentrations (50 ng, 250 ng, 1.0 μg) of either TIRAP P125H or MyD88 DN (a vector expressing MyD88 containing a proline to histidine mutation at the same position as TIRAP P125H) and the NF-κB-dependent luciferase reporter gene.

TLR4 = target: T2, TLR4 (Homo sapiens, UniProt O00206); assay: Co-immunoprecipitation with Myc-tagged TLR4 in 293T cells; format: binding; conditions: 293T cell lysates, anti-Flag immunoprecipitation
T2 construct: a Myc-tagged TLR4 deletion construct lacking the ectodomain (Myc TLR4 wt); Myc; expressed in transfected cells; host or cells: 293T cells
T2 sequence (O00206 653-839 limits assumed): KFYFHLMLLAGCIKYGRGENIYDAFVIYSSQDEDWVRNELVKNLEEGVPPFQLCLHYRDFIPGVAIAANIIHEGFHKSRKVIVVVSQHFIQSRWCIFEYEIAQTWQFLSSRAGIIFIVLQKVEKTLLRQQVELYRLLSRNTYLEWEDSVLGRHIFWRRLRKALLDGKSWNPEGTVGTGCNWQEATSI
Text: Cells were transfected in the presence (+) or absence (−) of constructs encoding a wild-type portion of TLR4 (TLR4 wt), a mutant derivative thereof (TLR4 mut), wild-type TIRAP (TIRAP), a mutant TIRAP containing a P125H mutation (TIRAP PH), or wild-type MyD88 (MyD88), wherein each construct further encodes a Myc, Flag, or hemaglutanin (HA) tag, as indicated. Antibodies used for immunoprecipitation (IP) or immunoblot (IB) are indicated to the left of each blot.
To obtain biochemical conformation for a role of TIRAP in the TLR4 signaling pathway, TIRAP-TLR4 protein interactions were evaluated using co-immunoprecipitation experiments. 293T cells were co-transfected with 4.5 μg of a Myc-tagged TLR4 deletion construct lacking the ectodomain (Myc TLR4 wt) or its mutant derivative (Myc TLR4 P714H) in the presence or absence of 1.5 μg of Flag-tagged TIRAP (Flag TIRAP) or its mutant derivative containing the P125H mutation (Flag TIRAP PH). […] Immunocomplexes were washed, separated by SDS-PAGE electrophoresis, and then analyzed by immunoblotting with either anti-myc antibody to look for co-immunoprecipitated TLR4 or anti-Flag antibody to confirm immunoprecipitation of Flag TIRAP or Flag TIRAP P125H. Total cell lysates (35 μg/sample) were likewise analyzed by SDS-PAGE and immunoblotting to confirm equivalent expression of the appropriate proteins in every sample. […]

- inhibition of NF-κB activation mediated by CD4/TLR4 [1]: strongly inhibited
- co-immunoprecipitation with TLR4 (TLR4): filed to co-immunoprecipitate
Substance: TIRAP P125H: vector encoding a mutant form of TIRAP containing a proline to histidine mutation at amino acid position 125
